The values below are quoted from earlier work in article PMC4344624.

For this data set, the target named is VPg (Turnip mosaic virus) (UniProt P89509).

pKd: −log10 of the molar value.

Chain of UniProt P89509 (P89509 1925-2116): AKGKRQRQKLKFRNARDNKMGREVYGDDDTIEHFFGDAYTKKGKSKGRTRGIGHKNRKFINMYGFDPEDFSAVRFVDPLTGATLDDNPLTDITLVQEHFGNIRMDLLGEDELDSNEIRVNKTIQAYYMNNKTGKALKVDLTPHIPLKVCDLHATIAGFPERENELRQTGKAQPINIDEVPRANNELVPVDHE

For “Pokeweed antiviral protein (from UniProt P10297)”, the pKd is 7.54.

Usually pKd stands for the Kd on a negative log10 scale, so that one unit is a factor of ten.
